Drawing on the supplement of paper PMC10567573, this text covers protein stability index for 53 sequences.

This data set can be described thus: protein stability index of a GFP-peptide fusion (GPS, HEK-293T) (PSI 1-6); higher = more stable.
[1] abbreviates: treatment: DMSO, c terminus: a fixed tail appended.
The mark [2] stands for this setting: treatment: MLN4924 1 uM, 8 h, c terminus: a fixed tail appended.

± gives the standard deviation.
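Note: 24-mer peptide tiles fused after GFP, lentivirally expressed, FACS-sorted into six equal bins by GFP/DsRed ratio, decoded by Illumina sequencing, PSI is the read-weighted mean bin number.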

DREVAIYSKESIIFGASSVDFSLS [GNB5]: the protein stability index was 2.98 ± 0.17 under setting [1] and 3.2 ± 0.27 under setting [2].

Turning to SKLVPAIQNAHKNSTGSGRGKKLM [TPRG1], the protein stability index stood at 4.6 ± 0.24 under setting [1] and 4.58 ± 0.16 under setting [2].

With EIKDVLVWTNDQVVHWVQSIGLRD [PPFIA4], the protein stability index under setting [2] was found to be 2.25 ± 0.37.

In the case of LLCAVCYDPFRDAVTLRCGHNFCR [TRIM35], the protein stability index came to 2.38 ± 0.23 under setting [1] and 2.46 ± 0.29 under setting [2].

FFYDCSNNPISEHFHPTVIGESMY [TENT5C] showed a protein stability index under setting [1] of 2.16 ± 0.43 and a protein stability index under setting [2] of 2.26 ± 0.16.

Turning to ASAEAPGDSGERSEGEAMEICSEP [ZNF511], the protein stability index runs as follows: under setting [1], 5.54 ± 0.21; under setting [2], 5.47 ± 0.29.

For the sequence VQLIWVVSQLYPESIVPIPSSNEE [INTS4], the protein stability index was 3.07 ± 0.45 under setting [1] and 2.81 ± 1.1 under setting [2].

In the case of QDELRNRSVKVICLGSLASKLSRK [FAN1], the protein stability index runs as follows: under setting [1], 2.96 ± 0.32; under setting [2], 3.17 ± 0.36.

As for STTTTTHITKTVKGGISETRIEKR [EPB41L3], the protein stability index is, setting by setting: under setting [1], 4.86 ± 0.2; under setting [2], 5.01 ± 0.21.

For the sequence IRESDPEQAPAPGEATAAPAPLCG [TBX6], the protein stability index by setting is: under setting [1], 5.32 ± 0.53; under setting [2], 5.31 ± 0.2.

WRMLTYKALNTFIDDLFAFVIKMP [CLPTM1]: the protein stability index was found to be 2.95 ± 0.4 under setting [1] and 2.96 ± 0.7 under setting [2].

On to ERSARYQYFVVDPMAEYNMPQYIL [PTPRD], for which the protein stability index by setting is: under setting [1], 2.01 ± 0.28; under setting [2], 2.74 ± 0.99.

Consider SGGSGGRGTGQLNRFVQLSGRPHL [KLHDC10], for which the protein stability index was 3.48 ± 0.28 under setting [1] and 3.65 ± 0.16 under setting [2].

For the sequence VPGTQVGQGGKLWDPSVQSCKEGL [ZNF263], the protein stability index amounted to 4.12 ± 0.12 under setting [1] and 4.26 ± 0.18 under setting [2].

As for SELTRLIQRIRSEIENVKKQASNL [KRT71], the protein stability index under setting [1] is 2.09 ± 0.068 and the protein stability index under setting [2] is 2.22 ± 0.21.

As to QQSPAAVSMETYHVTLTLPPTQLE [C2CD2L], the protein stability index runs as follows: under setting [1], 3.37 ± 0.35; under setting [2], 3.48 ± 0.35.

Consider QDSTRTVGERLQDTHSWKSELQRE [TEKT4], for which the protein stability index is, setting by setting: under setting [1], 4.88 ± 0.36; under setting [2], 4.96 ± 0.27.

The sequence PADSAQLLSLNSLLPESGIVADIE [TFE3] came in with a protein stability index under setting [1] of 4.93 ± 0.19 and a protein stability index under setting [2] of 5.1 ± 0.19.

AEESNPPLQDFPNSISSDKEATVP [MIA2]: the protein stability index was 5.41 ± 0.1 under setting [1] and 5.36 ± 0.25 under setting [2].

Regarding IEDLEVTCTWKLPTLAKFSPYLGQ [PRAME], the protein stability index under setting [1] is 2.62 ± 0.32 and the protein stability index under setting [2] stood at 2 ± 0.58.

Take ADLLAGFGGSFMAPSPSPVTPAQN [SNAP91]: the protein stability index was 4.16 ± 0.38 under setting [1] and 4.28 ± 0.24 under setting [2].

Take AGLDWQSLGQMKELGVIFYNCSCL [PLD5]: the protein stability index came out at 3.12 ± 0.15 under setting [1] and 3.26 ± 0.43 under setting [2].

LRRRIENGAKELWFFLQSELKKLK [FUT8]: the protein stability index is 2.85 ± 0.43 under setting [1] and 2.52 ± 0.4 under setting [2].

With LLKSHTNVLSVNLPDNFTLKEDGM [TPH1], the protein stability index under setting [1] worked out at 3.15 ± 0.24 and the protein stability index under setting [2] amounted to 3.22 ± 0.34.

In the case of GDWSAFNQAPSGPVASSGEFFGSA [CLINT1], the protein stability index came out at 4.16 ± 0.26 under setting [1] and 4.31 ± 0.18 under setting [2].

In the case of YVRLVCKDVRAPSRPAVGPPQPGC [ZSWIM9], the protein stability index runs as follows: under setting [1], 2.22 ± 0.23; under setting [2], 2.4 ± 0.27.

For the sequence TVAGSLNDFSYLHTNCFELSIYVG [CPXM2], the protein stability index stood at 2.79 ± 0.78 under setting [1] and 2.55 ± 0.7 under setting [2].

In turn, LQTLRSFSHTLVSLSLFGCTNIFY [ZER1] returned a protein stability index under setting [1] of 2.26 ± 0.35 and a protein stability index under setting [2] of 3.67 ± 1.3.

IEELCQKREELCRQIQEEEDEKQR [SSNA1]: the protein stability index came to 5.43 ± 0.1 under setting [1] and 5.52 ± 0.12 under setting [2].

Take LQLYFWKDREFHELQGDFSVPDVP [VPS39]: the protein stability index reads like this: under setting [1], 2.02 ± 0.46; under setting [2], 2.17 ± 0.22.

In the case of ELRRLFLVQDLVDSLKFAVLMWLL [RTN1], the protein stability index was 2.18 ± 0.56 under setting [1] and 2.2 ± 0.29 under setting [2].

In the case of EESEEERGLEPGKGRHHRGRGGEP [CHGB], the protein stability index runs as follows: under setting [1], 5.59 ± 0.17; under setting [2], 5.51 ± 0.25.

For QFSRGDFVVEYHGDLIEITDAKKR [KMT5A], the protein stability index reads like this: under setting [1], 4.13 ± 0.93; under setting [2], 4.15 ± 0.059.

In the case of ETDHLSMEEEDPMPRQISRQSSVT [TPRG1], the protein stability index under setting [1] came to 5.37 ± 0.21 and the protein stability index under setting [2] stood at 5.28 ± 0.36.

Consider YNYMMGIEFNPRIGKWFDFKLFFN [DHCR7], for which the protein stability index is, setting by setting: under setting [1], 2.52 ± 0.53; under setting [2], 2.23 ± 0.33.

Regarding SPNSTPAKTIDTSPPVDLFATASA [SNAP91], the protein stability index worked out at 4.8 ± 0.18 under setting [1] and 4.67 ± 0.15 under setting [2].

Turning to IETLIRDMLLSGSSFNWPYMAIQ [NR2F2], the protein stability index runs as follows: (treatment: DMSO, c terminus: native) 3.02 ± 1.2; (treatment: MLN4924 1 uM, 8 h, c terminus: native) 2.64 ± 0.41.

As to QRRASTVSSVTQVEVDENAYRCGS [NET1], the protein stability index turned out to be 5.01 ± 0.45 under setting [1] and 5.02 ± 0.2 under setting [2].

AEDYLTWKEWGFTGVQEVLSALLR [SPAG8] displayed a protein stability index under setting [1] of 2.28 ± 0.33 and a protein stability index under setting [2] of 2.19 ± 0.4.

For the sequence KADIGAPSGFKHVSHVGWDPQNGF [WAS], the protein stability index is 3.2 ± 0.37 under setting [1] and 3.33 ± 0.089 under setting [2].

GNEKSIIDCKFNAESQGCNHEEDA [LOXL2]: the protein stability index runs as follows: under setting [1], 5.65 ± 0.23; under setting [2], 5.57 ± 0.47.

For STWLILHHKVYDLTKFLEEHPGGE [CYB5A], the protein stability index by setting is: under setting [1], 2.17 ± 0.29; under setting [2], 2.21 ± 0.32.

Consider SAGVPPSAPLQGAVPPTSSVPPVA [SNAP91], for which the protein stability index by setting is: under setting [1], 4.79 ± 0.13; under setting [2], 4.82 ± 0.15.

For IKDQGGAGEGLVRSANGFPYREDE [MAP2], the protein stability index was found to be 5.13 ± 0.3 under setting [1] and 5.18 ± 0.28 under setting [2].

The sequence LLHNDEYQETMVESTFMYLTLDLP [USP39] had a protein stability index under setting [1] of 2.31 ± 0.29 and a protein stability index under setting [2] of 2.29 ± 0.34.

LYSLAPTMGAVVLSSTLLSFSTAI [MFSD9]: the protein stability index runs as follows: under setting [1], 3.19 ± 0.47; under setting [2], 2.96 ± 0.42.

Consider LFTIPLLYRQHQAQIDQYVGLVTN [RTN2], for which the protein stability index is, setting by setting: under setting [1], 2.81 ± 0.57; under setting [2], 2.95 ± 0.48.

Sequence SPTFPALGIGMDSCVIPLRHGGLS [SEPHS2] yielded a protein stability index under setting [1] of 2.98 ± 0.15 and a protein stability index under setting [2] of 2.98 ± 0.29.

As to FRVAKKRAPKVLGTTLVVGLLAGV [GDAP1], the protein stability index runs as follows: under setting [1], 2.47 ± 0.86; under setting [2], 1.82 ± 0.61.

Consider PVTCCDVSSNNRLVVTGSGEHASV [TLE6], for which the protein stability index by setting is: under setting [1], 4.19 ± 0.22; under setting [2], 4.37 ± 0.16.

As for KSYNICFELEDSNEIFTQLYRTLF [PDS5B], the protein stability index by setting is: under setting [1], 3.05 ± 0.83; under setting [2], 2.87 ± 0.61.

Consider ASQFLASASSSTTCCESTQRSVSD [IRX6], for which the protein stability index reads like this: under setting [1], 5.09 ± 0.22; under setting [2], 5.09 ± 0.22.

VCSDKRIPGFKFDNSLINQIENLN [LOXL2]: the protein stability index under setting [1] was determined as 2.56 ± 0.26 and the protein stability index under setting [2] was 3.01 ± 0.25.
